Read-outs that look alike come from different tables or passages of the source.
T1: mouse MAdCAM expressed on cells (mouse, UniProt Q61826 22-405)
T1 construct: whole, on cells
T1 sequence (looked up): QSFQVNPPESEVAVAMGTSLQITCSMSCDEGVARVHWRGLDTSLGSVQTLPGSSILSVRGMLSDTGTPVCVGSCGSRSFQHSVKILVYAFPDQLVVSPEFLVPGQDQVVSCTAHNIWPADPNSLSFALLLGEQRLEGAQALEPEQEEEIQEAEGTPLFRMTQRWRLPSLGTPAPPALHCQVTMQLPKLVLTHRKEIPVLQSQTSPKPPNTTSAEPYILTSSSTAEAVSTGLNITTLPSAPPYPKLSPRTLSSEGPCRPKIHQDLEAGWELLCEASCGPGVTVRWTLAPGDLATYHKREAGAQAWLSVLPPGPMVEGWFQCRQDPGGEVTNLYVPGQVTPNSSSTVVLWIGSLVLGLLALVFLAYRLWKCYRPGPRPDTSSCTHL

T2: human MAdCAM expressed on cells (human, UniProt Q13477 19-382)
T2 construct: whole, on cells; also called MADCAM1
T2 sequence (looked up): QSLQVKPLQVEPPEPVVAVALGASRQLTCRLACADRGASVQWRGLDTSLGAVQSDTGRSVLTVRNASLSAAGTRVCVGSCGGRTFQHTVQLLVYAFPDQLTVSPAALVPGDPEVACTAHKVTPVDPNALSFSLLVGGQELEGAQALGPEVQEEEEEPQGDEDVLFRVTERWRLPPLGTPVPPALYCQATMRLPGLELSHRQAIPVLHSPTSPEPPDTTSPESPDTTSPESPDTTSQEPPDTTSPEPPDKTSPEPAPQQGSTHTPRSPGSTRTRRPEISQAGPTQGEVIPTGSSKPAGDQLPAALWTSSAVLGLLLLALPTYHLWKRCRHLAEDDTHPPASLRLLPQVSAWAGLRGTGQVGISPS


Tests used:
Assay in all cases: cell binding
[1] = biological target: T1, mouse MAdCAM expressed on cells
[2] = biological target: T2, human MAdCAM expressed on cells
[3] = biological target: T1, mouse MAdCAM expressed on cells; remark: listed apart in the source
[4] = biological target: T2, human MAdCAM expressed on cells; remark: listed apart in the source

Binder | binding result [1] | binding result [2] | binding result [3] | binding result [4]
MAdCAM antibody Clone ID 1 of Table 7 (IgG) (antibody, V domains shown, IgG format) VH: EVQLLESGGGLVQPGGSLRLSCAASGFTFSSYGMHWVRQAPGKGLEWVAVISDDGSDKYYADSVKGRFTISRDNSKNTLYLQMNSLRAEDTAVYYCTTSKYYYYYGMDVWGQGTTVTVSS VL: DIQMTQSPSSLSASVGDRVTITCQASQDISKSLNWYQQKPGKAPKLLIYAASSLQSGVPSRFSGSGSGTDFTLTISSLQPEDFATYYCQQGYSTPLTFGGGTKVEIK | binds | binds |  | 
MAdCAM antibody Clone ID 13 of Table 7 (IgG) (antibody, V domains shown, IgG format) VH: QVQLVQSGAEVKKPGASVKVSCKASGYTFTTYYMHWVRQAPGQGLEWMGGFDPEDGETIYAQKFQGRVTMTRDTSTSTVYMELSSLRSEDTAVYYCARHAVAGAVGAGYYYYGMDVWGQGTMVTVSS VL: DIQMTQSPSSLSASVGDRVTITCRASESISNWLAWYQQKPGKAPKLLIYAASTLQSGVPSRFSGSGSGTDFTLTISSLQPEDFATYYCQQSYSVPFTFGPGTKVDIK | no binding | binds |  | 
MAdCAM antibody Clone ID 15 of Table 7 (IgG) (antibody, V domains shown, IgG format) VH: QVQLVQSGAEVKKPGASVKVSCKASGYTFTGYYMHWVRQAPGQGLEWMGWIGPNSGDTNYAQKFQGRVTMTRDTSTSTVYMELSSLRSEDTAVYYCARDLDHNWYFDLWGRGTLVTVSS VL: DIVMTQSPLSLPVTPGEPASISCRSSQSLLHSNGYNYLDWYLQKPGQSPQLLIYSSSNRAPGVPDRFSGSGSGTDFTLKISRVEAEDVGVYYCMQALHIPLTFGGGTKVEIK | no binding | binds |  | 
MAdCAM antibody Clone ID 16 of Table 7 (IgG) (antibody, V domains shown, IgG format) VH: EVQLLESGGGLVQPGGSLRLSCAASGFTFDDYAMHWVRQAPGKGLEWVSYIDASGTTIYYADSVKGRFTISRDNSKNTLYLQMNSLRAEDTAVYYCAKDQAAAGYWYFDLWGRGTLVTVSS VL: DIQMTQSPSSLSASVGDRVTITCQASQDISNYLNWYQQKPGKAPKLLIYKASTLESGVPSRFSGSGSGTDFTLTISSLQPEDFATYYCQQSYSTPITFGQGTRLEIK | no binding | binds |  | 
MAdCAM antibody Clone ID 18 of Table 7 (IgG) (antibody, V domains shown, IgG format) VH: QVQLVQSGAEVKKPGSSVKVSCKASGYTFTNYYMHWVRQAPGQGLEWMGGIIPIVDRVKYAQKFQGRVTITADESTSTAYMELSSLRSEDTAVYYCAKGRYTVNYYYGMDVWGQGTTVTVSS VL: DIQMTQSPSSLSASVGDRVTITCQANQDISNYLNWYQQKPGKAPKLLIYRASKLEAGVPSRFSGSGSGTDFTLTISSLQPEDFATYYCQQSSEIPYSFGQGTKLEIK | no binding | binds |  | 
MAdCAM antibody Clone ID 19 of Table 7 (IgG) (antibody, V domains shown, IgG format) VH: EVQLLESGGGLVQPGGSLRLSCAASGFTFEDYAMHWVRQAPGKGLEWVSYLNSDGGSTSYADSVKGRFTISRDNSKNTLYLQMNSLRAEDTAVYYCAKDYCTNGVCAFDYWGQGTLVTVSS VL: DIQMTQSPSSLSASVGDRVTITCRASQSISTYLNWYQQKPGKAPKLLIYDASNLETGVPSRFSGSGSGTDFTLTISSLQPEDFATYYCQQSYTIPITFGQGTRLEIK | no binding | binds |  | 
MAdCAM antibody Clone ID 21 of Table 7 (IgG) (antibody, V domains shown, IgG format) VH: EVQLVESGGGLVKPGGSLRLSCAASGFTFSSYWMSWVRQAPGKGLEWVSYISGDSGYTNYAAPVKGRFTISRDDSKNTLYLQMNSLKTEDTAVYYCARANSSGWYDWYFDLWGRGTLVTVSS VL: not shown | no binding | binds |  | 
MAdCAM antibody Clone ID 25 of Table 7 (IgG) (antibody, V domains shown, IgG format) VH: EVQLLESGGGLVQPGGSLRLSCAASGFTFSNAWMSWVRQAPGKGLEWVSTIVGNGGATYYADSVKGRFTISRDNSKNTLYLQMNSLRAEDTAVYYCARDNPLRWQGMDVWGQGTLVTVSS VL: DIQMTQSPSSLSASVGDRVTITCRASQDISNYLNWYQQKPGKAPKLLIYAASSLQSGVPSRFSGSGSGTDFTLTISSLQPEDFATYYCQQSYSIPPTFGPGTKVDIK | no binding | binds |  | 
MAdCAM antibody Clone ID 29 of Table 6 (scFv) (scFv) scFv: QVQLVQSGAEVKKPGASVKVSCKASGYTFTSYYMHWVRQAPGQGLEWMAWMNPNSGNTGYAQKFQGRVTMTRDTSTSTVYMELSSLRSEDTAVYYCARDYDFWSGSLGYWGQGTLVTVSSGGGGSGGGGSGGGGSGGGGSDIQMTQSPSSLSASVGDRVTITCRASQGISNYLAWYQQKPGKAPKLLIYAASSLQSGVPSRFSGSGSGTDFTLTISSLQPEDFATYYCQQSYSTPWTFGQGTKVEIK |  |  | no binding | binds
MAdCAM antibody Clone ID 31 of Table 6 (scFv) (scFv) scFv: QVQLVQSGAEVKKPGASVKVSCKASGYTFTSYYMHWVRQAPGQGLEWMGIINPSGGSTSYAQKFQGRVTMTRDTSTSTVYMELSSLRSEDTAVYYCARDTGYSYGRYYYYGMDVWGQGTLVTVSSGGGGSGGGGSGGGGSGGGGSDIQMTQSPSSLSASVGDRVTITCRASQSIGRWLAWYQQKPGKAPKLLIYDASNLQSGVPSRFSGSGSGTDFTLTISSLQPEDFATYYCQQSYSIPITFGQGTKVEIK |  |  | no binding | binds
MAdCAM antibody Clone ID 36 of Table 6 (scFv) (scFv) scFv: QVQLVQSGAEVKKPGASVKVSCKASGYTFTGHYMHWVRQAPGQGLEWMGIINPSGGSTSYAQKFQGRVTMTRDTSTSTVYMELSSLRSEDTAVYYCARDTGYSYGRYYYYGMDVWGQGTTVTVSSGGGGSGGGGSGGGGSGGGGSDIQMTQSPSSLSASVGDRVTITCRASQSIGRWLAWYQQKPGKAPKLLIYDASNLQSGVPSRFSGSGSGTDFTLTISSLQPEDFATYYCQQSYSIPITFGGGTKVEIK |  |  | no binding | binds
MAdCAM antibody Clone ID 32 of Table 6 (scFv) (scFv) scFv: QVQLVQSGAEVKKPGASVKVSCKASGYTLTDYYMHWVRQAPGQGLEWMGIINPSGGSTSYAQKFQGRVTMTRDTSTSTVYMELSSLRSEDTAVYYCAREEYSSSSGYFDYWGQGTLVTVSSGGGGSGGGGSGGGGSGGGGSDIQMTQSPSSLSASVGDRVTITCRASQGISSWLAWYQQKPGKAPKLLIYAASSLQSGVPSRFSGSGSGTDFTLTISSLQPEDFATYYCQQSYSTPLTFGQGTKVEIK |  |  | no binding | binds
MAdCAM antibody Clone ID 33 of Table 6 (scFv) (scFv) scFv: QVQLVQSGAEVKKPGASVKVSCKASGYTFTSYGISWVRQAPGQGLEWMGWMHPKSGDTGLTQKFQGRVTMTRDTSTSTVYMELSSLRSEDTAVYYCARDTPYYYYGMDVWGQGTTVTVSSGGGGSGGGGSGGGGSGGGGSDIQMTQSPSSLSASVGDRVTITCRASQSISSWLAWYQQKPGKAPKLLIYAASSLQSGVPSRFSGSGSGTDFTLTISSLQPEDFATYYCQQSYSVPITFGQGTKVEIK |  |  | no binding | binds
MAdCAM antibody Clone ID 35 of Table 6 (scFv) (scFv) scFv: EVQLLESGGGLVQPGGSLRLSCAASGFSFSSYTMNWVRQAPGKGLEWVSFITSSSRTIYYADSVKGRFTISRDNSKNTLYLQMNSLRAEDTAVYYCARDRRGDYGDSWYFDLWGRGTLVTVSSGGGGSGGGGSGGGGSGGGGSEIVMTQSPATLSVSPGERATLSCRASQSVRNYLAWYQQKPGQAPRLLIYGASTRATGIPARFSGSGSGTEFTLTISSLQSEDFAVYYCQQYGSSPLTFGGGTKVEIK |  |  | no binding | binds
MAdCAM antibody Clone ID 37 of Table 6 (scFv) (scFv) scFv: QVQLVQSGAEVKKPGASVKVSCKASGYTFSKHFVHWVRQAPGQGLEWMGWMNPNSGNSGYAQKFQGRVTMTRDTSTSTVYMELSSLRSEDTAVYYCARGEGGYYYYGMDVWGQGTLVTVSSGGGGSGGGGSGGGGSGGGGSDIQMTQSPSSLSASVGDRVTITCRASQSISSWLAWYQQKPGKAPKLLIYAASTLQSGVPSRFSGSGSGTDFTLTISSLQPEDFATYYCQQSYSTPWTFGQGTKVEIK |  |  | no binding | binds
MAdCAM antibody Clone ID 38 of Table 6 (scFv) (scFv) scFv: EVQLLESGGGLVQPGGSLRLSCAASGFTFGSYSMSWVRQAPGKGLEWVSAIGTGGGTYYADSVKGRFTISRDNSKNTLYLQMNSLRAEDTAVYYCAKGTPYYYYYGMDVWGQGTMVTVSSGGGGSGGGGSGGGGSGGGGSDIQMTQSPSSLSASVGDRVTITCRASQPLSNWLAWYQQKPGKAPKLLIYAASSLQSGVPSRFSGSGSGTDFTLTISSLQPEDFATYYCQQAISFPLTFGGGTKVEIK |  |  | no binding | binds
MAdCAM antibody Clone ID 39 of Table 6 (scFv) (scFv) scFv: QVQLVQSGAEVKKPGASVKVSCKASGYTFTSYYMHWVRQAPGQGLEWMGWMNPNSGNTGYAQKFQGRVTMTRDTSTSTVYMELSSLRSEDTAVYYCARDLGYYDSSGYFGAFDIWGQGTTVTVSSGGGGSGGGGSGGGGSGGGGSDIQMTQSPSSLSASVGDRVTITCQSSEDISSSLNWYQQKPGKAPKLLIYAASSLQIGVPSRFSGSGSGTDFTLTISSLQPEDFATYYCQQTYSTPYTFGQGTKVEIK |  |  | no binding | binds

— patent US20200392228A1 (PANDION OPERATIONS, published 2020)
